Experiment: yeast display, Sf9 membrane polyspecificity reagent, FACS + sequencing; frameworks hold sequencing errors
Method in brief: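 In a synthetic yeast display library (Saccharomyces cerevisiae BJ5465), nanobody expression was induced with galactose for 36–48 hours. FACS gates were set low and high (top ~1%) using anti-HA fluorescence for expression and streptavidin fluorescence for binding of the Sf9 membrane reagent. Each polyreactivity label is drawn from the gate of origin.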

| Sequence | polyreactivity (PSR sort gate) |
| --- | --- |
| QVQLVESGGGLVQAGGRLRFTCAASGAIFHNYDMGGYRQATGKERQLVADISRGGDTNYADSVKGRFTISRDNAKNTVYLEMNSMKPEDTAVYYCNATYWILDSPWWRETFDYWGQGSQVTVSS | low polyreactivity |
| QVQLVESGGGLVQAGGRLRISCAASGRTFGRYTMGWYRQAPGKERELVASISNTARTNYADSVKGRFTISRDNAKNTVYLQMNSLKPEDTAVYYCAAERAILSSDKQSLWRFDYWGQGTQVTVSS | low polyreactivity |
| QVQLVESGGGLVQAGGRLRLICAASGRTFTPYAMGWYRQAPGKERELVAAITRGGSTYYADSVKGRFTISRDNAKNTVYLHMNSLKPEDTAVYYCNALVSYYKLSSEYDYWGQGTQVTVSS | high polyreactivity |
| QVQLVESGGGLVQAGGRLRLRCAASGSIFSPNAMGWYRQAPGKERELVATISFSGGRTYYADSVKGRFTISRDNAKNSVYLQMNSLKPEDTAVYYCAKAYYYTDMDYWGQGTQVTVSS | low polyreactivity |
| QVQLVESGGGLVQAGGRLRLSCAASGATFYVYAMGWYRQAPGKERELVATIDSTDGDTYADSVKGRCTISRDNAKKTVYLQMNSLKPEDTAGYDCAATDLNIYYGYYDSWYWYELDYWGQGTQVTVSS | high polyreactivity |
| QVQLVESGGGLVQAGGRLRLSCAASGFIFVRNAMGWYRQAPGKERELVAAISRGGGRTYYADSVKGRFTISRDNAKNTVYLQINRLKPEDTAVYYCNTQSVGVQFVKDNYWGQGTQVTVSS | high polyreactivity |
| QVQLVESGGGLVQAGGRLRLSCAASGFIFYDYAMGWYRQAPGKERELVAVITSGGSTYYADSVKGRFTISRDNAKNTVYLQMNSLKPEDTAVYYCNADWVFTWYDYPNDKYDYWGQGTQVTVSS | low polyreactivity |
| QVQLVESGGGLVQAGGRLRLSCAASGFIFYFYAMGWYRQAPGKERELVAAISWSGGSPYYADSVKGRFTISRDNAKNTVYLQMNSLKPEDTAVYYCAADTRTSYYNDDYDYWGQGTQVTVSS | low polyreactivity |
| QVQLVESGGGLVQAGGRLRLSCAASGFISKYYAMGWSRQAQGKERELVASISRDGSTSYADSVKGRFTISRDNAKNTVYIQMNSLKPEDTAVYYCAAPSYRTRYYYWGQGTQVTVSS | high polyreactivity |
| QVQLVESGGGLVQAGGRLRLSCAASGFIYRPYLMGWYRQATGKEMEFVAAISGRGGSTYYADSVKGRFTISRDNAKKTVYLQMNSLKPEDTAVYYCNAVYIYTGVGYNYWGQGTQVTVSS | high polyreactivity |
| QVQLVESGGGLVQAGGRLRLSCAASGFTFAYYAMGGNRQSPGKERELVAAISSGGGSTYYADSEKGRFTISRDNAKNTVYLQMNSQKPEDTAVYYCAAESCSPQAWFDYWGQGTQVTVSS | high polyreactivity |
| QVQLVESGGGLVQAGGRLRLSCAASGFTFDYNAMGWYIQAPGKEREFVASISVSGGSTYYADSVKGRFTISRDNAKNTVYLQMNSLKPEDTAVYYCAAELTGDGTLGYDFWGQGTQVTVSS | low polyreactivity |
| QVQLVESGGGLVQAGGRLRLSCAASGFTFVKNAMGWYRQAPGKERELVAAISSRGGSTYYADSVKGRFTISRDNAKNTVYLQMNSLKAEDTAVYYCATERERTMGYWGQGTQVTDSS | high polyreactivity |
| QVQLVESGGGLVQAGGRLRLSCAASGGIFDTYVMGRYRQAPGKERELVAGISSTGGSTYYADSVKGRFTISRDNAKNTVYLQMNSLKPEDTAVYYCNAEAGGFDYYGKTYRYGDYWGQGTQVTVSS | low polyreactivity |
| QVQLVESGGGLVQAGGRLRLSCAASGHIFWGYAMGWSRQAPGKERELVAAITSGGNTNYADSVKGRFTISRDNAKNTVYLQMNSLKPEDTAVYYCAKRTRPWRDFDYWGQGTQVTVSS | low polyreactivity |
| QVQLVESGGGLVQAGGRLRLSCAASGIIFGYYALGWYRQAPGKERELVAAISSGGTTSYADSVKGRFTISRDNAKNTDYLQMNSLKPEDTAVYYCAADYDAAWYKDGYYYWGQGTQVTVSS | low polyreactivity |
| QVQLVESGGGLVQAGGRLRLSCAASGIIFGYYAMGWYREAPGKEREFVAAINYSGVSTYYADSVKGRLTISRDNAKNTVYLQMNSLKPEDTAVYYCAADFRIVVYGWGGSHMDYWGQGTQVTVSS | low polyreactivity |
| QVQLVESGGGLVQAGGRLRLSCAASGIIFRGNPMGRYRQAPGKERELVAAIARRGGRTYYADSVKGRFTISRDNAKNTVYLQMNCLKAEDTAVYFCAAGELGDYWGQGTQVTVSS | high polyreactivity |
| QVQLVESGGGLVQAGGRLRLSCAASGIIFRWYTMGWYRQAPGKERELVAAISTSTGSTYYADSVKGRFTISRDNAKNTVYLQMNSLKPEDSAVYYCAAVYAYWNYESYYWGQGTQVTVSS | high polyreactivity |
| QVQLVESGGGLVQAGGRLRLSCAASGIIFVYYAMGWYRQAPGKERELVADITRSGSSTYYADSVKGRFTISRDNAKNTVYLQMNSLKAEDTAVYFCAADNFYQAYGYWGQGTQVTVSS | low polyreactivity |
| QVQLVESGGGLVQAGGRLRLSCAASGIILYGYAMGWYRQAPGKARELVAAITWSGGSTYYADSVKGRFTISRDNAKNTVYLQMNSLKPEDTAVYYCAVDVHTSADASLPQEYDYWGQGTQVTVSS | low polyreactivity |
| QVQLVESGGGLVQAGGRLRLSCAASGINFSHKVMGWYRQAPGKERELVAAITYSGGSTYYADSVKGRFTSSRDNAKNTVYLQMNSLKPEDTAVYYCNALGVSRRDYDYWGQGTQVTVSS | low polyreactivity |
| QVQLVESGGGLVQAGGRLRLSCAASGISFDWYAMGWYRQAPGKERELVAAITVGASTYADSVKGRFTISRDNAKNTDYLQMNSLIPEDTAVYYCTFPVFVDYGFYTIGHDYWGQGTQVTVSS | low polyreactivity |
| QVQLVESGGGLVQAGGRLRLSCAASGITFWNYAMGWYRQAPGKETELVAAITGGSTYYADSVKGRFTISRDYAKNTVYLQMNSLKPEDTAVYYCNADSLFEYWDYDYWGQGTQVTVSS | low polyreactivity |
| QVQLVESGGGLVQAGGRLRLSCAASGITYEPYAMGWYRQAPGKERELVAAISRSGGSTYYADSVKGRFTISRDNAKNTVYLQMNSLKPVDTAVYYCNALRGTASRRGYYWGQGTQVTVSS | high polyreactivity |
| QVQLVESGGGLVQAGGRLRLSCAASGITYTVYAMGWYRQAPGKERELLAAISSSGSTTYADSVNGRFTISRDNAKNTVYLLMNSLKPEDTAVYDCAAEGYYRFSTAYFRLKYEYWGQGTQVTVSS | low polyreactivity |
| QVQLVESGGGLVQAGGRLRLSCAASGLTFASYALGWYRQAPGKERELVARISRSGGSTYYADSVKGRFTISRDNAKNTVYLQMNSLIPEDTAVYYCAADYIFRRYPVGGIYDYDYWGQGTQVTLSS | high polyreactivity |
| QVQLVESGGGLVQAGGRLRLSCAASGNIFHYNAMGGSRQAPGKERELVAAITWSGGNTYYADSVKGRFTISRDNAKNTVYLQLNSLKPEDTAVYYCAAEFPQRATGGRYKTEYDYWGQGTQVTVSS | low polyreactivity |
| QVQLVESGGGLVQAGGRLRLSCAASGNIFYAYALGWYRQAPGKERELVAAISWSGDSTYYADSVKGRFTISRDNAKNTVYLQMNSLKPEDTAVYYCAARKVTYHYQWMDYWGQGTQVTVSS | low polyreactivity |
| QVQLVESGGGLVQAGGRLRLSCAASGRIFERYAMGWYRQAPGKERELVATISTSGGSTYYADSVKGRFTISRDNAKNTVYLQMNSLKPEDTAVYYCAAPYQRRRYYYWGQGTKVTVSS | high polyreactivity |
